Experiments:
[1] = target: T1, monkey IL-33 expressed with C-terminal hexahistidine tag (MfIL-33-6His) (cynomolgus monkey (M. fascicularis)); assay: cell-based or functional assay
T1 chain: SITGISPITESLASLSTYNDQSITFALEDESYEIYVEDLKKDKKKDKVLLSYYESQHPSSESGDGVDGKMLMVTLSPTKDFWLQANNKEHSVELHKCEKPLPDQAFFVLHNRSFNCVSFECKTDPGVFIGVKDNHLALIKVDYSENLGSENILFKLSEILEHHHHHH

[2] = target: T2, human IL-33 (R&D Systems, # 3625-IL-010/CF) (human, UniProt O95760 112-270, biotinylated in the blocking ELISA of Example 3 (sites not given)); assay: cell-based or functional assay
T2 sequence (looked up): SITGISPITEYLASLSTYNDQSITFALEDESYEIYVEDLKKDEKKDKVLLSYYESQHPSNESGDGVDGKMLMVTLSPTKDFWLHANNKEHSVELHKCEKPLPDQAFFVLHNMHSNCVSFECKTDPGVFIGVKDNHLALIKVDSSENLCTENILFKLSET

[3] = target: T2, human IL-33 (R&D Systems, # …); assay: cell-based or functional assay; remark: listed apart in the source
[4] = target: T2, human IL-33 (R&D Systems, # …); assay: SPR (Biacore T-200), 37 C; Fc fusion captured by anti-Fc antibody, IL-33 injected
Method: (§1) The Biacore sensor surface was first derivatized by amine coupling a polyclonal rabbit anti-mouse antibody (GE, # BR-1008-38) or with a monoclonal mouse anti-human Fc antibody (GE, # BR-1008-39) to capture IL-33 Trap and receptor proteins with a C-terminal mouse IgG2a Fc tag or a C-terminal human IgG1 Fc tag, respectively. Kinetic experiments were carried out in 0.01 M HEPES pH 7.4, 0.15 M NaCl, 3 mM EDTA, and 0.005% v/v Surfactant Tween-20 (HBST running buffer). Different concentrations of human IL-33, mouse IL-33 or MfIL-33-6His prepared in HBST running buffer (ranging from 60 nM to 27.4 pM, 3-fold dilutions, for Trap proteins and ranging from 60 nM to 0.25 nM, 3-fold dilutions, for ST2 receptor proteins) were injected over the captured IL-33 Trap and receptor protein surfaces at a flow rate of 50 μL/minute. Association of different IL-33 proteins to the different capture surfaces was monitored for 7 minutes for Trap proteins or 4 minutes for ST2 receptor proteins and their dissociation in HBST running buffer was monitored for 14 minutes for Trap proteins or 8 minutes for ST2 receptor proteins. Kinetic association (ka) and dissociation (kd) rate constants were determined by fitting the real-time binding sensorgrams to a 1:1 binding model using Scrubber 2.0c curve-fitting software. Binding dissociation equilibrium constants (KD) and dissociative half-lives (t½) were calculated from the kinetic rate constants as: […]

[5] = target: T3, mouse IL-33 (R&D Systems, # 3626-ML-010/CF) (mouse, UniProt Q8BVZ5 109-266); assay: SPR (Biacore T-200), 25 C; Fc fusion captured by anti-Fc antibody, mouse IL-33 injected
T3 construct: Commercial protein; also called mIL-33; mIL33
T3 sequence (looked up): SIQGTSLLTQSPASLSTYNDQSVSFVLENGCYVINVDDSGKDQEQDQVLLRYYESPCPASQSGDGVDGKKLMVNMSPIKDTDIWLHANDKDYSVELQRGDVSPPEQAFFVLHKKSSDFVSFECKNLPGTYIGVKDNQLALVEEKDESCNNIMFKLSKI
Method: as §1

[6] = target: T2, human IL-33 (R&D Systems, # …); assay: competition ELISA; antagonist pre-mixed with 20 pM biotin-hIL-33, binding to plate-coated human ST2-Fc
Method: (§2) The ability of exemplary IL-33 antagonists of the invention to block human IL-33 (hIL-33) binding to the human ST2 receptor was measured using a competition sandwich ELISA. A portion of human ST2 protein ecto domain that was expressed with a C-terminal mouse Fc tag (SEQ ID NO:2) was coated at a concentration of 1 μg/mL in PBS buffer on a 96-well microtiter plate overnight at 4° C. […] Biotinylated hIL-33 protein (R&D systems, #3625-IL/CF) (biot-hIL-33) was added to achieve a constant final concentration of 20 pM to serial dilutions of IL-33 antagonists ranging from 0 to 100 nM. The mixture was incubated for 1 hour at room temperature (RT) before transfer to the hST2-hFc coated microtiter plates. After incubation for 1 hour at RT, the wells were then washed, and plate-bound biot-hIL-33 was detected with HRP-conjugated streptavidin (Thermo Scientific, # N200). All samples were developed with a TMB solution (BD biosciences, # 51-2607KC) to produce a colorimetric reaction and then quenched by acidification with 1M sulfuric acid before measuring absorbance at 450 nm on a Victor X5 plate reader (PerkinElmer). Data analysis was performed using a sigmoidal dose-response model within Prism™ software. […] Maximum blocking values represent the ability of the antagonists to block IL-33 binding relative to baseline. The absorbance measured at the constant amount of hIL-33 on the dose curve was defined as 0% blocking and the absorbance with no added IL-33 was defined as 100% blocking. The absorbance values of the wells containing the highest concentration tested for each antagonist were used to determine the maximum blocking percent.

[7] = target: T2, human IL-33 (R&D Systems, # …); assay: competition ELISA; antagonist pre-mixed with 20 pM biotin-hIL-33, binding to plate-coated human ST2-Fc; highest concentration tested
Method: as §2

- IC50 (M), inhibition of 3 pM monkey IL-33 activation of HEK293/hST2/NFkB-luciferase cells [1]: 4.7e-11 M
- IC50 (M), inhibition of 5 pM monkey IL-33 activation of HEK293/hST2/NFkB-luciferase cells [1]: 1.3e-12 M
- IC50 (M), blocking of IL-33 induced activation of human basophils (CD203c), donor 655675 [2]: 1.9e-11 M
- IC50 (M), blocking of IL-33 induced activation of human basophils (CD203c), donor 655676 [2]: 1.51e-11 M
- IC50 (M), blocking of IL-33 induced activation of human basophils (CD203c), donor 655685 [2]: 2.3e-11 M
- IC50 (M), blocking of IL-33 induced activation of human basophils (CD203c), donor 655686 [2]: 2.09e-11 M
- IC50 (M), blocking of IL-33 induced activation of human basophils (CD203c), donor 698846 [2]: 3.6e-11 M
- IC50 (M), blocking of IL-33 induced activation of human basophils (CD203c), donor 698847 [2]: 1.11e-11 M
- IC50 (M), blocking of IL-33 induced IFN-gamma release from human PBMC, donor 634966 [3]: 2.13e-12 M
- IC50 (M), blocking of IL-33 induced IFN-gamma release from human PBMC, donor 655681 [3]: 4.59e-11 M
- IC50 (M), blocking of IL-33 induced IFN-gamma release from human PBMC, donor 655682 [3]: 3.97e-12 M
- IC50 (M), blocking of IL-33 induced IFN-gamma release from human PBMC, donor 655684 [3]: 6.79e-11 M
- IC50 (M), blocking of IL-33 induced IFN-gamma release from human PBMC, donor 698842 [3]: 7.39e-11 M
- IC50 (M), blocking of IL-33 induced IFN-gamma release from human PBMC, donor 698843 [3]: 1.73e-11 M
- IC50 (M), blocking of IL-33 induced IFN-gamma release from human PBMC, donor 727054 [3]: 3.34e-10 M
- IC50 (M), blocking of IL-33 induced IFN-gamma release from human PBMC, donor 727055 [3]: 1.23e-10 M
- 60 nM Human IL-33 Bound (RU) [4]: 28 RU
- Kd [4]: 1.11 pM
- koff [4]: 2.02e-05 s⁻¹
- kon [4]: 1.82e+07 M⁻¹ s⁻¹
- t1/2 [4]: 573 min
- 60 nM Mouse IL-33 Bound (RU) [5]: 22 RU
- Kd [5]: 0.0192 nM
- koff [5]: 8.97e-05 s⁻¹
- kon [5]: 4.67e+06 M⁻¹ s⁻¹
- t1/2 [5]: 129 min
- IC50 [6]: 6.34 pM
- % Maximum blocking [7]: 97%
B1: hST2-hIL1RAcP-mFc (Fc fusion)
chain: KFSKQSWGLENEALIVRCPRQGKPSYTVDWYYSQTNKSIPTQERNRVFASGQLLKFLPAAVADSGIYTCIVRSPTFNRTGYANVTIYKKQSDCNVPDYLMYSTVSGSEKNSKIYCPTIDLYNWTAPLEWFKNCQALQGSRYRAHKSFLVIDNVMTEDAGDYTCKFIHNENGANYSVTATRSFTVKDEQGFSLFPVIGAPAQNEIKEVEIGKNANLTCSACFGKGTQFLAAVLWQLNGTKITDFGEPRIQQEEGQNQSFSNGLACLDMVLRIADVKEEDLLLQYDCLALNLHGLRRHTVRLSRKNPIDHHSSERCDDWGLDTMRQIQVFEDEPARIKCPLFEHFLKFNYSTAHSAGLTLIWYWTRQDRDLEEPINFRLPENRISKEKDVLWFRPTLLNDTGNYTCMLRNTTYCSKVAFPLEVVQKDSCFNSPMKLPVHKLYIEYGIQRITCPNVDGYFPSSVKPTITWYMGCYKIQNFNNVIPEGMNLSFLIALISNNGNYTCVVTYPENGRTFHLTRTLTVKVVGSPKNAVPPVIHSPNDHVVYEKEPGEELLIPCTVYFSFLMDSRNEVWWTIDGKKPDDITIDVTINESISHSRTEDETRTQILSIKKVTSEDLKRSYVCHARSAKGEVAKAAKVKQKVPAPRYTVESGEPRGPTIKPCPPCKCPAPNLLGGPSVFIFPPKIKDVLMISLSPIVTCVVVDVSEDDPDVQISWFVNNVEVHTAQTQTHREDYNSTLRVVSALPIQHQDWMSGKEFKCKVNNKDLPAPIERTISKPKGSVRAPQVYVLPPPEEEMTKKQVTLTCMVTDFMPEDIYVEWTNNGKTELNYKNTEPVLDSDGSYFMYSKLRVEKKNWVERNSYSCSVVHEGLHNHHTTKSFSRTPGK
notes: also called third IL-33 antagonist; human IL-33 Trap
